This experiment has as its target T1, mouse interleukin 11 receptor alpha chain 1 (mouse, UniProt Q64385 24-372).
T1 sequence (looked up): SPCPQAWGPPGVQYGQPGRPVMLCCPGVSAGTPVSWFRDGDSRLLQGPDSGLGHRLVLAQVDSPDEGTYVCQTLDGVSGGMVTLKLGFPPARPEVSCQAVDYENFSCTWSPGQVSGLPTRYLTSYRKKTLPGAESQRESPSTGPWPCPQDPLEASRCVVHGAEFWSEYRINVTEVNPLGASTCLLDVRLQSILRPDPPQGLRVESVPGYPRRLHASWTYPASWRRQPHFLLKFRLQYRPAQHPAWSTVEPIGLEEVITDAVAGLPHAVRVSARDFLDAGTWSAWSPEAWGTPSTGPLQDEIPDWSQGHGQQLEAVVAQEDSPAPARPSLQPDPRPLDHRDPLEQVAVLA
The experiment can be described thus: SPR. Background: Surface plasmon resonance follows binding to a sensor surface in real time, without labels.

B1: recombinant mouse IL11 (ligand, UniProt P47873 22-199, looked up)
chain: PGPPAGSPRVSSDPRADLDSAVLLTRSLLADTRQLAAQMRDKFPADGDHSLDSLPTLAMSAGTLGSLQLPGVLTRLRVDLMSYLRHVQWLRRAGGPSLKTLEPELGALQARLERLLRRLQLLMSRLALPQAAPDQPVIPLGPPASAWGSIRAAHAILGGLHLTLDWAVRGLLLLKTRL
Usually Kd stands for the constant that tells how readily two partners part at equilibrium. Read a low Kd as tighter binding. In turn, B1 displayed an equilibrium dissociation constant (Kd) of 94 nM.

B2: recombinant human interleukin 11 (ligand, UniProt P20809 22-199, looked up)
chain: PGPPPGPPRVSPDPRAELDSTVLLTRSLLADTRQLAAQLRDKFPADGDHNLDSLPTLAMSAGALGALQLPGVLTRLRADLLSYLRHVQWLRRAGGSSLKTLEPELGTLQARLDRLLRRLQLLMSRLALPQPPPDPPAPPLAPPSSAWGGIRAAHAILGGLHLTLDWAVRGLLLLKTRL
As to B2, binding was put at a Kd of 72 nM.

The values above are taken from doi:10.1101/830018 (bioRxiv, 2019).
